A word on the Kd: it is the free concentration of one partner at which half of the binding sites on the other are occupied at equilibrium, for simple one-to-one binding. High values mean a looser complex, low ones a tighter complex. For orientation: Km means the concentration of substrate that gives half-maximal velocity. One may read the kcat as the number of substrate molecules converted per active site and unit of time at saturation. A word on the kcat/Km: it is the turnover number divided by the Michaelis constant.

Data set [1] addresses T1, GOX1462 (Gluconobacter oxydans, UniProt Q5FQY5).
T1 construct: recombinant N-terminal His-tagged protein
T1 sequence (Q5FQY5 1-359): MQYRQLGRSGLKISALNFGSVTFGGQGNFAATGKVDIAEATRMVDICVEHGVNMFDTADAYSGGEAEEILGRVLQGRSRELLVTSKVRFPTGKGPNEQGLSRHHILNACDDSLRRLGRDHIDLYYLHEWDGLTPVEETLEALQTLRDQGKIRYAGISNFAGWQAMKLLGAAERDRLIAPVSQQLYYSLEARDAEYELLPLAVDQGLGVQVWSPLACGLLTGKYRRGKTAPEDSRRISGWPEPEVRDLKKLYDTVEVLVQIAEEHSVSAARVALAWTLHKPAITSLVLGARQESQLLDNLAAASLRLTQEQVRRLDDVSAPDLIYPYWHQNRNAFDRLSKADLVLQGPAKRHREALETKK
Description: tryptophan fluorescence quenching. The data set is classed as binding.

Data set [2] deals with T2, GOX0716 (Gluconobacter oxydans, UniProt Q5FT03).
T2 construct: recombinant N-terminal His-tagged protein
T2 sequence (Q5FT03 1-257): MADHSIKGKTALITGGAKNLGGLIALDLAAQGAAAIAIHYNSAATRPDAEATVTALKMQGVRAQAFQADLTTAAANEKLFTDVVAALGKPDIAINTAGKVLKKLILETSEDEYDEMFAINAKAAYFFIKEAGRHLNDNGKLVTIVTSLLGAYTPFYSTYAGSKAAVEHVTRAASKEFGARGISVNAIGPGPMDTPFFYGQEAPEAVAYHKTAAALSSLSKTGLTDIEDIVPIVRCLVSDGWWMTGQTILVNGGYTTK
Description: tryptophan fluorescence quenching. The data set is classed as binding.

Substrate in data set [3]: O=C1C(=O)c2ccccc2-c2ccccc21
Description: purified protein. The data set is classed as biochemical, Gluconobacter oxydans. The following applies: NADPH.

Substrate in data set [4]: O=C1C=C2C(=CCOC2O)O1
Nature of the data set: purified protein. It counts as biochemical, Gluconobacter oxydans.

Substrate in data set [5]: O=C1Nc2ccccc2C1=O
Description: purified protein. It counts as biochemical, Gluconobacter oxydans. Conditions: NADPH.

Substrate in data set [6]: O=Cc1ccco1
Description: purified protein. The following applies: NADPH. The data set is classed as biochemical, Gluconobacter oxydans.

Substrate in data set [7]: CCC=O
Description: purified protein, by the assay type. Also noted: steady-state Michaelis-Menten kinetics of carbonyl substrate reduction, NADPH consumption at 340 nm, 25 °C. Conditions: 25.0 °C. As for the experimental part: (§1) For substrate specificity, kinetic measurements were performed at 25 °C in triplicate in 100 mM potassium phosphate buffer, pH 6.0 (for GOX0716) or pH 7.0 (for GOX1462). Substrate utilization was monitored by the decrease in the level of NADPH at 340 nm using a BioTek Epoch 2 microplate reader. Reactions were conducted in a total volume of 200 μL. The molar extinction coefficient of NADPH was determined by constructing a linear regression standard line using NADPH standards of known concentrations. One unit (1 U) of enzyme activity is defined as the amount of enzyme required to oxidize 1 μmol NADPH per minute. Stock solutions of substrates were prepared in dimethyl sulfoxide (DMSO). All kinetic data fitting was performed using nonlinear regression with GraphPad Prism, version 8. All data were fitted to the Michaelis–Menten equation. The kinetic parameters for each enzyme were determined at their respective pH optimum.

Substrate in data set [8]: CCCC=O
Description: purified protein, by the assay type. Also noted: steady-state Michaelis-Menten kinetics of carbonyl substrate reduction, NADPH consumption at 340 nm, 25 °C. The following applies: 25.0 °C. As for the experimental part: as §1

Substrate in data set [9]: CCCCCC=O
Description: purified protein, by the assay type. The arrangement: steady-state Michaelis-Menten kinetics of carbonyl substrate reduction, NADPH consumption at 340 nm, 25 °C. The following applies: 25.0 °C. As for the experimental part:
as §1

Substrate in data set [10]: CCCCCCC=O
Description: purified protein, by the assay type. Also noted: steady-state Michaelis-Menten kinetics of carbonyl substrate reduction, NADPH consumption at 340 nm, 25 °C. The following applies: 25.0 °C. As for the experimental part: as §1

Substrate in data set [11]: O=CCO
Nature of the data set: purified protein, by the assay type. Also noted: steady-state Michaelis-Menten kinetics of carbonyl substrate reduction, NADPH consumption at 340 nm, 25 °C. Conditions: 25.0 °C. As for the experimental part:
as §1

Substrate in data set [12]: CCCC=O
Nature of the data set: purified protein. The data set is classed as biochemical, Gluconobacter oxydans. Conditions: NADPH.

Substrate in data set [13]: CC(=O)C=O
Description: purified protein, by the assay type. Also noted: steady-state Michaelis-Menten kinetics of carbonyl substrate reduction, NADPH consumption at 340 nm, 25 °C. The following applies: 25.0 °C. The method, then: as §1

Substrate in data set [14]: O=CC(O)CO
Nature of the data set: purified protein, by the assay type. Also noted: steady-state Michaelis-Menten kinetics of carbonyl substrate reduction, NADPH consumption at 340 nm, 25 °C. The following applies: 25.0 °C. The method, then: as §1

Substrate in data set [15]: O=Cc1ccccc1
Description: purified protein, by the assay type. The arrangement: steady-state Michaelis-Menten kinetics of carbonyl substrate reduction, NADPH consumption at 340 nm, 25 °C. The following applies: 25.0 °C. As for the experimental part:
as §1

The mark [16] stands for this setting: NADPH docked as the ring-opened aldehyde form: hydrogen bonds with catalytic Tyr159 and Thr146, Tyr156, Glu201, Pro191, Pro189.
[17] abbreviates: NADPH docked as the ring-opened aldehyde form: hydrogen bonds with catalytic Tyr61, Ser157 and Asn158.

As for `NC(=O)C1=CN([C@@H]2O[C@H](COP(=O)(O)OP(=O)(O)OC[C@H]3O[C@@H](n4cnc5c(N)ncnc54)[C@H](OP(=O)(O)O)[C@@H]3O)[C@@H](O)[C@H]2O)C=CC1` [NADPH], the dissociation constant (Kd) in [1] amounted to 30.3 ± 3.56 µM; in data set [2], 20.5 ± 2.86 µM.

B1: GOX0716 (Gluconobacter oxydans 621H) (protein)
chain: T2 sequence (Q5FT03 1-257)
notes: recombinant N-terminal His-tagged protein
Take B1: the Michaelis-Menten constant (Km) in [3] turned out to be 46.9 ± 8.17 µM; in data set [4] (setting [16]), 1300 ± 213 µM; in data set [5] it was 282 ± 40.3 µM; in data set [6], 94.8 ± 8.91 µM; in data set [7], 417 ± 52.1 µM; in data set [8], 351 ± 40.4 µM. Also, the Michaelis constant (Km) in data set [9] stood at 509 ± 71.7 µM; in [10], 637 ± 72.8 µM; in data set [11], 607 ± 110 µM. Moreover, the kcat is 3.14 ± 0.181 s⁻¹ in data set [3]; 0.0468 ± 0.00402 s⁻¹ in data set [4] (setting [16]); 0.127 ± 0.00588 s⁻¹ in data set [5]; 0.0103 ± 0.000223 s⁻¹ in data set [6]; 0.0442 ± 0.00201 s⁻¹ in data set [7]; 0.0339 ± 0.00135 s⁻¹ in data set [8]. For the same molecule, the kcat was 0.00946 ± 0.000516 s⁻¹ in [9], 0.0402 ± 0.00191 s⁻¹ in data set [10] and 0.00643 ± 0.000459 s⁻¹ in data set [11]. Also, the kcat/Km in data set [3] came out at 67000 ± 12300 M⁻¹ s⁻¹; in data set [4] (setting [16]) it was 36 ± 6.66 M⁻¹ s⁻¹; in data set [5] it was 450 ± 67.6 M⁻¹ s⁻¹; in data set [6], 109 ± 0.0964 M⁻¹ s⁻¹; in [7], 106 ± 14.1 M⁻¹ s⁻¹; in data set [8] it was 96.6 ± 11.8 M⁻¹ s⁻¹. Also, the results for the kcat/Km in data set [9], in data set [10] and in data set [11] were 18.6 ± 2.81 M⁻¹ s⁻¹, 63.1 ± 7.81 M⁻¹ s⁻¹ and 10.6 ± 2.06 M⁻¹ s⁻¹, respectively.

B2: GOX1462 (Gluconobacter oxydans 621H) (protein)
chain: T1 sequence (Q5FQY5 1-359)
notes: as for B1
For the molecule B2, the Km stood at 139 ± 14.4 µM in data set [12]; 31.9 ± 4.85 µM in data set [3]; 178 ± 25.4 µM in [4] (setting [17]); 107 ± 17.1 µM in data set [5]; 1990 ± 238 µM in data set [13]; 164 ± 13.7 µM in [7]. Moreover, the Km in [9] came to 513 ± 141 µM; in data set [10], 178 ± 15.6 µM; in [14], 483 ± 85.9 µM; in [15] it was 258 ± 37.7 µM. Moreover, the kcat in [12] is 0.0241 ± 0.000654 s⁻¹; in data set [3], 5.79 ± 0.234 s⁻¹; in [4] (setting [17]), 0.0389 ± 0.00145 s⁻¹; in data set [5], 0.163 ± 0.00536 s⁻¹; in [13], 0.221 ± 0.0159 s⁻¹; in [7], 0.0228 ± 0.000523 s⁻¹. For the same molecule, the kcat in data set [9] is 0.0251 ± 0.00251 s⁻¹; in data set [10], 0.027 ± 0.000671 s⁻¹; in data set [14], 0.0181 ± 0.00121 s⁻¹; in data set [15], 0.0184 ± 0.000807 s⁻¹. In addition, the kcat/Km is 173 ± 18.5 M⁻¹ s⁻¹ in data set [12]; 182000 ± 28600 M⁻¹ s⁻¹ in [3]; 219 ± 32.3 M⁻¹ s⁻¹ in data set [4] (setting [17]); 1520 ± 248 M⁻¹ s⁻¹ in [5]; 111 ± 15.5 M⁻¹ s⁻¹ in data set [13]; 139 ± 12 M⁻¹ s⁻¹ in [7]. The catalytic efficiency (kcat/Km) in [9] stood at 48.9 ± 14.3 M⁻¹ s⁻¹; in data set [10], 152 ± 13.8 M⁻¹ s⁻¹; in data set [14] it was 37.5 ± 7.12 M⁻¹ s⁻¹; in [15], 71.3 ± 10.9 M⁻¹ s⁻¹.

Values taken from article PMC11926874, “Patulin Detoxification by Evolutionarily Divergent Reductases of Gluconobacter oxydans ATCC 621” (Journal of Agricultural and Food Chemistry, 2025).
